Assay results: patent US20070020706A1 (UNIVERSITY HOSPITALS OF CLEVELAND, published 2007)

B1: truncated P2X7-j receptor protein (receptor)
chain: MPACCSCSDVFQYETNKVTRIQSMNYGTIKWFFHVIIFSYVCFALVSDKLYQRKEPVISSVHTKVKGIAEVKEEIVENGVKKLVHSVFDTADYTFPLQGNSFFVMTNFLKTEGQEQRLCPEYPTRRTLCSSDRGCKKGWMDPQSKGIQTGRCVVHEGNQKTCEVSAWCPIEAVEEAPRPALLNSAENFTVLIKNNIDFPGHNYTTRNILPGLNITCTFHKTQNPQCPIFRLGDIFRETGDNFSDVAIQIRQVLQGKQC
notes: Untagged P2X7-j, expressed in HEK-293 cells or endogenous in human cancer cell lines; Runs as 42-45 kDa bands; also called P2X7-RTR
B2: full-length human P2X7 receptor (receptor)
chain: MPACCSCSDVFQYETNKVTRIQSMNYGTIKWFFHVIIFSYVCFALVSDKLYQRKEPVISSVHTKVKGIAEVKEEIVENGVKKLVHSVFDTADYTFPLQGNSFFVMTNFLKTEGQEQRLCPEYPTRRTLCSSDRGCKKGWMDPQSKGIQTGRCVVHEGNQKTCEVSAWCPIEAVEEAPRPALLNSAENFTVLIKNNIDFPGHNYTTRNILPGLNITCTFHKTQNPQCPIFRLGDIFRETGDNFSDVAIQGGIMGIEIYWDCNLDRWFHHCHPKYSFRRLDDKTTNVSLYPGYNFRYAKYYKENNVEKRTLIKVFGIRFDILVFGTGGKFDIIQLVVYIGSTLSYFGLAAVFIDFLIDTYSSNCCRSHIYPWCKCCQPCVVNEYYYRKKCESIVEPKPTLKYVSFVDESHIRMVNQQLLGRSLQDVKGQEVPRPAMDFTDLSRLPLALHDTPPIPGQPEEIQLLRKEATPRSRDSPVWCQCGSCLPSQLPESHRCLEELCCRKKPGACITTSELFRKLVLSRHVLQFLLLYQEPLLALDVDSTNSRLRHCAYRCYATWRFGSQDMADFAILPSCCRWRIRKEFPKSEGQYSGFKSPY
notes: Expressed from cDNA in HEK-293 cells or endogenous in human cells and tissues (CaSki, HeLa, cervical tissue); Mostly assayed in cell extracts on immunoblots, where it runs as 65, 75 and 85 kDa forms; also called P2X7-RFL; P2X7-WT

Columns and labels:
Experiment in all cases: densitometry of oligomer bands on an immunoblot, HEK293 cells co-expressing P2X7 and P2X7-j
[1] = molecular target: B2
[2] = molecular target: the molecule itself
[3] = molecular target: B1

Binder | relative band density (ratio) [1] [ratio parts] | relative band density (ratio) [2] [ratio parts] | relative band density (ratio) [3] [ratio parts]
B1 | 15 | 70 | –
B2 | – | 10 | 5
